Data on two molecules can be found in patent publication US9827288B2, “Method for treating a refractory or relapsed lung cancer” (MYCOMAGIC BIOTECHNOLOGY CO., LTD., priority 2015, dated 2017).

One assay concerns LLC1 cells. In words: Tumor growth in LLC1 allograft mice. Type of assay: in vivo. The conditions noted are these: vs PBS. On the procedure: Male C57BL/6 (6-8 weeks of age) mice were subcutaneously inoculated with LLC1 cells and randomly divided into two groups. Seven days after implantation, the mice were treated with GMI (5 mg/kg) via i.p. injections at intervals of 4 days. The control group received an equal volume of sterile PBS.
The mice will be weighed and randomly distributed across the different experimental groups (n=5). At day 0, approximately 2×10^5 lung cancer cells suspended in 100 μl serum free DMEM will be subcutaneously (s.c.) implanted into the right flank of all mice for easy observed detection. The mice were sacrificed on the 25th day and the tumors were then excised. […] Tumor size was measured (FIG. 1A) for each mouse using a set of digital calipers at 4 days, and the tumor volume was calculated by the formula L1×L2×H, where L1 is long diameter, L2 is the short diameter and H is the height of the tumor. Representative images of the tumors on the 25th day (FIG. 1B).
We further examined the effect of rLZ-8 on mice with LLC1-allograft in vivo. LLC1 cells were subcutaneously injected into male C57BL6 mice, and the tumor growth rate was assessed over 17 days.

In assay [1] the test system is EGFR. As to the kind of experiment: Western blot of EGFR level in H1975 cells. Type of assay: cell-based, human. The protocol: Knocking down of EGFR by EGFR siRNA activated activity of caspase3/7, resulting in apoptosis in gefitinib-resistant H1975 cells (Chen G et al., BMC Med. 2012; 10:28). To investigate the apoptosis, human H1975 cells were seed in 60-mm plat-dish and incubated with rLZ-8 (5 μg/ml) and GMI (10 μg/ml) for 48 hours and 72 hours, respectively.
(In general: A western blot detects proteins with antibodies after separation by electrophoresis.)

In assay [2] the target is T1, EGFR (Homo sapiens, UniProt P00533). In words: Western blotting to detect expression of EGFR in CL1-5 and H226 cells. Details: endogenous in cells; host or cells: CL1-5 and H226 cells. Type of assay: cell-based. The conditions noted are these: 5 μg/ml for CL1-5 and 10 μg/ml for H226, 0-12 h. The protocol:
CL1-5 and H226 cells were incubated with rLZ-8 and GMI (5 μg/ml for CL1-5 and 10 μg/ml for H226) for 0-12 h followed by western blotting to detect expression of EGFR. […] The regulatory mechanisms of ligand-induced EGFR degradation dependent on endocytosis (Hicke L., FASEB J. 1997; 11:1215-26.). To investigate whether rLZ-8-induced EGFR degradation by inducing endocytosis, we performed depletion of clathrin heavy chain experiments in NSCLC cells. Using clathrin heavy chain shRNAs such as #2755 (sh-S1), #2757 (sh-S2) and #7981 (sh-S3), we confirm the efficacy of clathrin shRNAs, and we found (via Western blot analysis) that clathrin knockdown leads to a reduction in the overall protein levels of clathrin in CL1-5 and H226 cells (FIG. 4B). Next, we examined whether the rLZ-8-induced EGFR degradation dependent on clathrin-mediated endocytosis in NSCLC cells.

The target in assay [3] is T1, EGFR. In words: Co-localization with EGFR by fluorescence microscopy. Type of assay: cell-based. Set-up: endogenous in cells; host or cells: CL1-5 and H226 cells. The conditions noted are these: H226 cells. On the procedure: (§1) Science the downregulation of EGFR by rLZ-8 and GMI may involve an intracellular pathway similar to that induced by EGF-mediated EGFR endocytosis and degradation, we hypothesized that rLZ-8 and GMI could interact with EGFR. The co-locolization of rLZ-8/GMI and EGFR were determined by fluorescence microscopy. […] To further examine the association of rLZ-8 and EGFR, immunoprecipitation assay was performed by anti-EGFR and anti-his-tag (for detecting rLZ-8) antibody.

Assay [4] concerns the target T1, EGFR. In words: Immunoprecipitation assay with anti-EGFR and anti-his-tag antibody. Type of assay: binding. Set-up: After treatment of rLZ-8 in A549; endogenous in cells; host or cells: A549 cells. The conditions noted are these: A549 cells treated with rLZ-8. On the procedure:
as §1

B1: GMI: recombinant immunomodulatory protein derived from Ganoderma microsporum, manufactured by Mycomagic Biotechnology per U.S. Pat. No. 7,601,808 (protein)
chain: EAEAEFMSDTALIFTLAWNVKQLAFDYTPNWGRGRPSSFIDTVTFPTVLTDKAYTYRVVVSGKDLGVRPSYAVESDGSQKINFLEYNSGYGIADTNTIQVYVIDPDTGNNFIVAQWNYLEQKLISEEDLNSAVDHHHHHH
modifications: Ganoderma microsporum (GMI) or a recombinant thereof (reGMI)
For the molecule B1, in the assay on LLC1 cells (LLC1-bearing male C57BL/6 mice, GMI 5 mg/kg i.p. at intervals of 4 days from day 7, to 25th day), the tumor volume result is “significantly decreases tumor volume”. Besides, the EGFR level entry in the assay with EGFR [1] (GMI 10 μg/ml, 72 hours) is “induced downregulation of EGFR level”. Besides, in the assay with EGFR [2], the EGFR protein levels result is given as “significantly suppressed the EGFR protein levels”.

B2: rLZ-8: his-tagged recombinant fungal immunomodulatory protein LZ-8 from Ganoderma lucidum (SEQ ID NO:5) (protein, listed as Ganoderma lucidum)
chain: MSDTALIFRLAWDVKKLSFDYTPNWGRGNPNNFIDTVTTFPKVLTDKAYTYRVAVSGRNLGVKPSYAVESDGSQKVNFLEYNSGYGIADTNTIQVFVVDPDTNNDFIIAQWN
modifications: His tag
For the molecule B2, the tumor volume result in the assay on LLC1 cells (LLC1-bearing male C57BL6 mice, rLZ-8 7.5 mg/kg, over 17 days) is reported as “significantly decreases tumor volume”. The tumor weight result with LLC1 cells (LLC1-bearing male C57BL6 mice, rLZ-8 7.5 mg/kg) was “significantly decreases”. For the same molecule, in the assay with EGFR [1] (rLZ-8 5 μg/ml, 48 hours), the EGFR level result is “induced downregulation of EGFR level”. In addition, in the assay with EGFR [2], the EGFR protein levels entry was “significantly suppressed the EGFR protein levels”. Further, in the assay with EGFR [3], the “co-localization with EGFR” value is “mainly co-localized on the plasma membrane and formed the punctuate intracellular clusters in the cytoplasm”. Moreover, the “association with EGFR (immunoprecipitation)” value in the assay with EGFR [4] is recorded as “present in the immunoprecipitants obtained by the anti-EGFR antibody”.
